According to patent publication US20210130436A1:
“And” between values parts separate entries of the source, which are not always exact repeats. Identical values can stand only once.

What was measured:
Assay in all cases: cell-based or functional assay
[1] = biological target: PD-1 (PDCD1) (Homo sapiens (Human)) (UniProt Q15116)
[2] = biological target: CD28 on Jurkat/IL2 reporter cells (human) (UniProt P10747)
[3] = biological target: PD-L1 on K562/OKT3/PD-L1 artificial antigen presenting cells (UniProt Q9NZQ7)
PD-L1 on K562/OKT3/PD-L1 artificial antigen presenting cells, sequence (Q9NZQ7 19-290): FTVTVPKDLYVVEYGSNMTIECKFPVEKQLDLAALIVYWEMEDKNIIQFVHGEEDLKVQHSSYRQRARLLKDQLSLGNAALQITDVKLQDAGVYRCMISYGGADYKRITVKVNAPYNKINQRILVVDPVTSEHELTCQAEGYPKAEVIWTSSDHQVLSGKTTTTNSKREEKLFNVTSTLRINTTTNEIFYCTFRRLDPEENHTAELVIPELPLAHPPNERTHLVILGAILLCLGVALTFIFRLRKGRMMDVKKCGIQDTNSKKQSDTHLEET

PD-1 (PDCD1) (Homo sapiens (Human)), sequence (Q15116 21-288): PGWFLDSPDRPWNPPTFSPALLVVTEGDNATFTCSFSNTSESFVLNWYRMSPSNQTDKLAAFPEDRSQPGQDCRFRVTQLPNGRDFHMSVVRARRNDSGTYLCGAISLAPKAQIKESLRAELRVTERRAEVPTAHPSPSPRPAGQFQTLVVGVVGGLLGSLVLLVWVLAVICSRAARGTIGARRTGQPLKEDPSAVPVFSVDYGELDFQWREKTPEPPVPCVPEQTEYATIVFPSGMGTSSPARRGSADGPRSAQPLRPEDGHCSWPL
Wild Type PD-L2 IgV-Fc, sequence (Q9BQ51 20-121): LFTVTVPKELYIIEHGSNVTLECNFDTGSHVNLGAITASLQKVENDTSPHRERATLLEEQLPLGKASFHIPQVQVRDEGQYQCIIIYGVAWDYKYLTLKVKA

IFN gamma levels pg/mL (MLR) [1]	Fold Increase over WT CD80-IgV-Fc (RLU, Jurkat/IL2 + K562/OKT3/PD-L1 reporter assay, 50 nM) [2] [fold]	Relative Luciferase Units (RLU), Jurkat/IL2 + K562/OKT3/PD-L1 reporter assay, CD80-Fc Conc 50 nM [2] [RLU]	Fold Increase over WT CD80-IgV-Fc (RLU, Jurkat/IL2 + K562/OKT3/PD-L1 reporter assay, 50 nM) [3] [fold]	Relative Luciferase Units (RLU), Jurkat/IL2 + K562/OKT3/PD-L1 reporter assay, CD80-Fc Conc 50 nM [3] [RLU]	Substance
1320 pg/mL	–	–	–	–	PD-L2 H15Q/T47A/Q82R IgV-Fc (from UniProt Q9BQ51 20-121) (Fc fusion)
1470 pg/mL	–	–	–	–	PD-L2 I13V/H15Q/L33F/T47A/Q82R/V89D IgV-Fc (from UniProt Q9BQ51 20-121) (Fc fusion)
1470 pg/mL	–	–	–	–	PD-L2 I13V/H15Q/T47A/Q72H/R76G IgV-Fc (from UniProt Q9BQ51 20-121) (Fc fusion)
1430 pg/mL	–	–	–	–	PD-L2 I13V/H15Q/Q82R IgV-Fc (from UniProt Q9BQ51 20-121) (Fc fusion)
1270 pg/mL	–	–	–	–	PD-L2 I13V/H15Q/E44V/T47A/Q82R/V89D IgV-Fc (from UniProt Q9BQ51 20-121) (Fc fusion)
1290 pg/mL	–	–	–	–	PD-L2 H15Q/L33P/T47A/S67L/P71S/V89D IgV-Fc (from UniProt Q9BQ51 20-121) (Fc fusion)
–	6.4	1320	6.4	1320	CD80 E35D/M38T/D46E/M47V/N48S IgV-Fc (inert) (Fc fusion)
1980 pg/mL	–	–	–	–	PD-L2 N24D IgV-Fc (from UniProt Q9BQ51 20-121) (Fc fusion)
1510 pg/mL	–	–	–	–	PD-L2 H15Q/K65R IgV-Fc (from UniProt Q9BQ51 20-121) (Fc fusion)
–	4.1	851	4.1	851	CD80 E35D/K37E/M47V/N48D/L85Q/D90N IgV-Fc (inert) (Fc fusion)
–	5.9	1220	5.9	1220	CD80 E35D/M47V/A71G/E88D IgV-Fc (inert) (Fc fusion)
–	5.4	1120	5.4	1120	CD80 E35D/T41S/M43I/A71G/D90G IgV-Fc (inert) (Fc fusion)
1390 pg/mL	–	–	–	–	PD-L2 H15Q/E44D/R76G/I85F IgV-Fc (from UniProt Q9BQ51 20-121) (Fc fusion)
–	5.1	1040	5.1	1040	CD80 E35D/D46E/M47V/A71D/D90G IgV-Fc (inert) (Fc fusion)
–	3.3	680	3.3	680	CD80 E35D/M38T/M43V/M47V/N48R/L85Q IgV-Fc (inert) (Fc fusion)

The next lines start with the substance.

Substance	IFN gamma levels pg/mL (MLR) [1]	Fold Increase over WT CD80-IgV-Fc (RLU, Jurkat/IL2 + K562/OKT3/PD-L1 reporter assay, 50 nM) [2] [fold]	Relative Luciferase Units (RLU), Jurkat/IL2 + K562/OKT3/PD-L1 reporter assay, CD80-Fc Conc 50 nM [2] [RLU]	Fold Increase over WT CD80-IgV-Fc (RLU, Jurkat/IL2 + K562/OKT3/PD-L1 reporter assay, 50 nM) [3] [fold]	Relative Luciferase Units (RLU), Jurkat/IL2 + K562/OKT3/PD-L1 reporter assay, CD80-Fc Conc 50 nM [3] [RLU]
PD-L2 H15Q/S67L/R76G IgV-Fc (from UniProt Q9BQ51 20-121) (Fc fusion)	1430 pg/mL	–	–	–	–
PD-L2 I13V/H15Q/E44D/V89D IgV-Fc (from UniProt Q9BQ51 20-121) (Fc fusion)	1380 pg/mL	–	–	–	–
PD-L2 I13V/H15Q/T47A/Q82R/V89D IgV-Fc (from UniProt Q9BQ51 20-121) (Fc fusion)	1450 pg/mL and 1740 pg/mL	–	–	–	–
PD-L2 E44D/S67L/Q72H/Q82R/V89D IgV-Fc (from UniProt Q9BQ51 20-121) (Fc fusion)	1280 pg/mL	–	–	–	–
PD-L2 H15Q/S39I/I86T IgV-Fc (from UniProt Q9BQ51 20-121) (Fc fusion)	1420 pg/mL	–	–	–	–
PD-L2 I13V/Q72H/R76G/I86T IgV-Fc (from UniProt Q9BQ51 20-121) (Fc fusion)	1950 pg/mL	–	–	–	–
CD80 A26E/E35D/M47L/A71G IgV-Fc (inert) (Fc fusion)	–	8.5	1750	8.5	1750
CD80 Q27H/E35D/D46V/M47L/A71G IgV-Fc (inert) (Fc fusion)	–	4.7	978	4.7	978
PD-L2 H15Q/V89D IgV-Fc (from UniProt Q9BQ51 20-121) (Fc fusion)	1500 pg/mL	–	–	–	–
CD80 H18Y/A26E/E35D/M47L/L85Q/D90G IgV-Fc (inert) (Fc fusion)	–	7.3	1510	7.3	1510
Wild Type PD-L2 IgV-Fc (from UniProt Q9BQ51 20-121) (Fc fusion)	1380 pg/mL	–	–	–	–
PD-L2 H15Q/C23S/I86T IgV-Fc (from UniProt Q9BQ51 20-121) (Fc fusion)	1850 pg/mL	–	–	–	–
PD-L2 S67L/I85F IgV-Fc (from UniProt Q9BQ51 20-121) (Fc fusion)	1280 pg/mL	–	–	–	–
PD-L2 I13V/H15Q/R76G/I85F IgV-Fc (from UniProt Q9BQ51 20-121) (Fc fusion)	1530 pg/mL	–	–	–	–
PD-L2 H15Q/T47A/Q72H/R76G IgV-Fc (from UniProt Q9BQ51 20-121) (Fc fusion)	1460 pg/mL	–	–	–	–
PD-L2 S39I/V89D IgV-Fc (from UniProt Q9BQ51 20-121) (Fc fusion)	1310 pg/mL	–	–	–	–
PD-L2 E59G/Q82R IgV-Fc (from UniProt Q9BQ51 20-121) (Fc fusion)	1510 pg/mL	–	–	–	–
PD-L2 I13V/H15Q/I36V/T47A/S67L/V89D IgV-Fc (from UniProt Q9BQ51 20-121) (Fc fusion)	1360 pg/mL	–	–	–	–
PD-L2 H15Q/T47A/K65R/S67L/Q82R/V89D IgV-Fc (from UniProt Q9BQ51 20-121) (Fc fusion)	1340 pg/mL	–	–	–	–
PD-L2 H15Q/R76G/I85F IgV-Fc (first entry) (from UniProt Q9BQ51 20-121) (Fc fusion)	1730 pg/mL	–	–	–	–
PD-L2 I12V/I13V/H15Q/T47A/Q82R/V89D IgV-Fc (from UniProt Q9BQ51 20-121) (Fc fusion)	1530 pg/mL	–	–	–	–
PD-L2 I13V/S67L/Q82R/V89D IgV-Fc (from UniProt Q9BQ51 20-121) (Fc fusion)	1370 pg/mL	–	–	–	–
CD80 E35D/T41S/M43I/M47L/A71G IgV-Fc (inert) (Fc fusion)	–	7.5	1540	7.5	1540
